Laboratory results as given in the nanobody polyreactivity screen of Harvey et al. (2022).

Assay: yeast display, Sf9 membrane polyspecificity reagent, FACS + sequencing; frameworks hold sequencing errors
Procedure, shortened: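 Polyreactivity labels are assigned by the sorting gate from which each nanobody was recovered. The gates were low and high (top ~1%), set on anti-HA fluorescence for expression and streptavidin fluorescence for reagent binding. Before sorting, galactose-induced (36–48 hours) yeast display cells were stained for 1 hour at 4 °C with 10% biotinylated, detergent-solubilized Sf9 membrane reagent.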
In the case of “QVQLVESGGGLVQAGGSLRLSCAASGSTFSQYAMGWYRQAPGKETELVAVITRSGGSTYYADSVKGRFTISRDNAKNTVYLQMNSLKPEDTAVYYCAARSGRYKGDYWGQGTQVTVSS”, the “polyreactivity (PSR sort gate)” value is reported as “low polyreactivity”. With “QVQIVESGGGLVQAGGSLRLSCAASGRTFTYYAMGWYRQAPGKERELVARIRSGGSTYYADSVKGRFTISRDNEKNTVYLQMNSLKPEDTAVYYCNADRRSAGLYNYWGQGTQVTVSS” the “polyreactivity (PSR sort gate)” value was “low polyreactivity”. In the case of “QVQLVESGGGLVQAGGSLRLSCAASGSTFYRYAMGWYRQAPGKERELVAAINTGGSTNYADSVKGRFTISRDNAKNTVYLQMNSLKPEDTAVYYCAARFQYYRKYDYWGQGTQGTVSS”, the “polyreactivity (PSR sort gate)” value is reported as “low polyreactivity”. For “QVQLVESGGGLVQAGGSLRLSCAASGRIFYSNTMGWYRQAPGKERELVARIDTGGGSTYADSVKGRFTISRDNAKNTVYLQMNSLKPEDTAVYYCNKKGRWRSWGSTSMVSMDYWGQGTQVTVSS”, the “polyreactivity (PSR sort gate)” value was “low polyreactivity”. For “QVQLVESGGGLVQAGGSLRLSCAASGFTFGYYDMGWYRQAPGKERELVAAISSSDVSTYADSVKGRFTISRDNAKNTVYLQMNSLKPEDTAVYYCAADFWYSYYYWGQGTQVTVSS”, the “polyreactivity (PSR sort gate)” value was “high polyreactivity”. For “QVQLVESGGGLFQAGGRLRLSCASSGYTFDYYTMAWYRQAPGKERELVARITASGGSTYYADSVKGRFTISRDNAKNTVYLQMNSLKPEDTAVYYCAADYWWYTGYDYWGQGTQVTVSS”, the “polyreactivity (PSR sort gate)” value was “high polyreactivity”. For “QVQLVESGRGLVQAGGSLRLSCAASGRTLSQYAMGWYRQAPGKERELVAAITRSGGSTYYADSVTGRFTISRDISKNTVYLQMNSLKRDDTAVYYCNITLYTTYDYWGQGTQVTVSS”, the “polyreactivity (PSR sort gate)” value was “low polyreactivity”. In the case of “QVQLVESGGGLVQAGGSLRLSCAASGRIFKGYAMGWYRQAPGKERELVAAITWRGGTTYYADSVKGPFTISRDNAKNTVYLQMNSLKPEDTAVYYCAAANWQRYYYWGQGTQVTVSS”, the “polyreactivity (PSR sort gate)” value is reported as “high polyreactivity”. With “QVQLVESGVGLVQAGGSLRLSCAASGGNFWSYPMGLYRQAPGKEREYVAAITTSAGRTNYADSVKGRFTISRDNAKNSVYLQMNSLKPEDTAVYYCAARSAYPGLGYGFDYWGQGTQVTVSS” the “polyreactivity (PSR sort gate)” value was “low polyreactivity”. With “QVQLVESGGGLVQAGGSLRLSCAASGRIFSRNAMGWYRQAPGKERELVAAITRRGGSTYYADSVKGRFTISRDNAKNTVYLQMNSLKPEDTAVYYCATVTYSGSVDYDYWGQGTQVTVSS” the “polyreactivity (PSR sort gate)” value was “high polyreactivity”. In the case of “QVQLVESGGGLVQAGGSLRLSCAASGRIIGYNAMGWYRQAPGKERELVAAIDYTGGSTYYADSVKGRFTISLDNAKNTVYLQMNSLKPEDTAVYYCAKDRTTPWEEDDYWGQGTQVTVSS”, the “polyreactivity (PSR sort gate)” value is reported as “low polyreactivity”. In the case of “QVQLVESGGGLVQAGGSLRLSCAASGGIFTYYAMGGYRQAPGKERELVAAITWSGGSTYYADSVKGRFTISRDNAKNTVYLQMNSLKPEETAVYYCNAVVLHVTTDNSTFTTDDYWGHGTQVTVSS”, the “polyreactivity (PSR sort gate)” value is reported as “low polyreactivity”. For “QVQLVESGGGLVQAGGSLRLSCAASGSILWLYVMGWYRQAPGKERELVATITSSGGSTYYADSVKGRFTISRDNAKNSVYLQMNSLKPEDTAVYYCAADYSRDEYDYWGQGTQVTVSS”, the “polyreactivity (PSR sort gate)” value was “low polyreactivity”. In the case of “QVQLVESGGGLVQAGGSLRLSCAASGRTFNYYAMGWYRQAPGKERELVAAISWSGTPTYYADSVKGRFTISRDNAKNTVYLQMNCLKPEDTAVYYCAAYLVSYPRGNYIRYDYWGQGTQVTVSS”, the “polyreactivity (PSR sort gate)” value is reported as “low polyreactivity”. For “QVQLVESGGGLVQAGGSLRLICAASGRIFFIYAMGWYRQAPGKERELVAGINRTGGSTYYADSVKGRFTISRDNAKNSVYLHMNSLKPEDTAVYYCAAVSYYASDYRYDYWGKGTQVTVSS”, the “polyreactivity (PSR sort gate)” value was “low polyreactivity”. In the case of “QVQLVESGGGLVQAGGSLRLSCAASGFIFAEYAMGWYRQAPGKDRELVAAITSGGSTSYADSVKGRFTISRDNAKNTVYLQMNSLKPEDTAVYYCAATWYYHYNDWKHWYEYGYWGQGTQVTVSS”, the “polyreactivity (PSR sort gate)” value is reported as “low polyreactivity”. With “QVQLVESGGGLVQAGGSLRLMCAASGSTFRRNAMGWYRQAPGKERELVASISWRAGSTYYADSVKGRFTISRDNAKNTVYLQMNSLKQEDTAVYYCAASYYYYPSWEYEYWGQGTQVTVSS” the “polyreactivity (PSR sort gate)” value was “high polyreactivity”. For “QVQLVESGGGLVQAGGSLRLSCASSGRTFYSYAMGWYRQAPGKERELVAGITWSGTSTYYADSVKGRFTISRDNWKNTVYLQMYSLKPEDTAVYYCAAATLYSGYDYWGQGTQVSVSS”, the “polyreactivity (PSR sort gate)” value was “low polyreactivity”. For “QVQLVESGGGLVQAGGSLRLSSAASGSIFGSYAMGWYRQAPGKERELVAAITSGGSTYADSVKGRFTISRDNAKNTVYLQMNSLKPEDTAVYYCNAKFYQSTSNLVQSEYDYWGQGTQVTVSS”, the “polyreactivity (PSR sort gate)” value was “low polyreactivity”. With “QVQRVESGGGLVQAGGILSLSCAASGSIFPWYAMGWYIQAPANERELVAAITISGGSTHYADSVKGRFTISRDNAKNSVYLEMNSLIPEDTAVYYCSTPRYPSYEYWGLGTQVTVSS” the “polyreactivity (PSR sort gate)” value was “low polyreactivity”. In the case of “QVQLVESGGGLVQAGGSLRLSCAASGSIFSRYTLGWYRQAPGKVRELVARINSSGTSTYYADSLKGRFTISRDKAKNTVYLQMNSLKPEDTAVYYCARTSRHVRYDYWGQGTQVTVSS”, the “polyreactivity (PSR sort gate)” value is reported as “low polyreactivity”. In the case of “QVQLVESGGGLVQAGGSLRLSCAASGRIFGHYAMGWYRPAPGKERELVAAISTGGSTYYADSVKGRFTISRDNAKNTVYFQMNSLKPEDTAVYFCNKRPVRRKYDYWGQGTHVTVSS”, the “polyreactivity (PSR sort gate)” value is reported as “low polyreactivity”. With “QVQLVESGGGLVQAGGSLRLSCAASGRTFKAYAMGWYRQAAGKEREFVPAITKRGGSTYYADSVKGRFTISRDNAKNTVYLQMNSLKPEDTAVYYCAVGLGRYTHTSVPIPSYDYWGQGTQVTVSS” the “polyreactivity (PSR sort gate)” value was “high polyreactivity”. For “QVQLVESGGGLVQAGGSLRLSCAASGSIFQSYAMGWYRQAPGKERELVAAITERGGSTYYADSVKGRFTISRDTAKNTVYLQMNSLKPEDTAVYYCAADIYYWWCLSDLYTPTEGDYWGQGTQVTVSS”, the “polyreactivity (PSR sort gate)” value was “low polyreactivity”. With “QVQLVESGGGLVQAGGSLRLSCAASGSIFPGYPMGWYRQAPGKERELVAAISRSGGITYYADSVKGRFTISRDNAKNTVYLQMNSLKPEDTAVYYCAKTLPSNGHYDYWGQGTQVTVSS” the “polyreactivity (PSR sort gate)” value was “low polyreactivity”. For “QVQLVESGGGLVQAGGSLRLSSAASGSTFFSNAMGWYRQAPGKERELVATIRFGGGSTYADSVKGRFTISRDNAKNTVYLQMNSLKPEDTAVYYCAADDSDKRYTRSWYGYWGQGTQVAVSS”, the “polyreactivity (PSR sort gate)” value was “low polyreactivity”. With “QVQLVESGGGLVQAGGSLRLSCAASGLIFSYNAMGWYRQAPGKERELVAAISYSGGSTYYADSVKGRFTNSRDNAKNTVYLQMNSLKPEDTAVYYCAAVWRRQGSAYVGSYGYDYWGQGTQVTVSS” the “polyreactivity (PSR sort gate)” value was “high polyreactivity”. For “QVQLVESGGGLVQAGGSLRLSCAASGRTFWWYTMGWYRQAPGKERELVAVISSTGGRTYYADSVKGRFTISRDNAKNTVYLQMNSLKPEDTSVYYCAAEYVSAKWEYGYWGQGTQVTVSS”, the “polyreactivity (PSR sort gate)” value was “low polyreactivity”. In the case of “QVQLVESGGGLVQAGGSLRLSCAASGIIFQSYTMGWYRQAPGKERELVAAIDSGGSTYYADSVKGRFTISRDNAKNTVYLQMNSLKPEDTAVYYCAAEPDTYWYTYDYWGQGTQVTVSS”, the “polyreactivity (PSR sort gate)” value is reported as “low polyreactivity”. With “QVQLVESGGGLVQAGGSLRLTCAASGRIFSYYDMGWYRKAPGKERELVARISYSGDSTYYADSVKGRFTISRDNAKNTVYLQMNSLKPEDTAVYYCAAEVDSGYSEYYWGQGTQVTVSS” the “polyreactivity (PSR sort gate)” value was “low polyreactivity”. For “QVQLVESGGGLVQAGGSLRLSCAASGSIFYRNAMGWYRQAPGKERELVAAITSSGGSTYYADSVKGRFTISRDNAKNTVYLQMNSLKPEDTAVYYCATRGWSKQLYGGYTQYYYWGQGTQVTVSS”, the “polyreactivity (PSR sort gate)” value was “high polyreactivity”. In the case of “QVQLVESGGGLVQAGGSLRLSCAASGSFGFYVMGWYRQAPGKERELVSAISSVGSTNYADSVKGRFTISRDNAKNTVYFQMNSLKPEDTAVYYCARRYWYPDAFYRYDYWGQGTQVTVSS”, the “polyreactivity (PSR sort gate)” value is reported as “low polyreactivity”. In the case of “QVQLVESGGGLVQAGGSLRLSCAASGSIFSRYAMGWYSQAPGKELELVAAISWRGGSTYYADSVKGRFTISRDNAKNTVYLQMNSLKPEDTAVYYCAVRDYRPYSRFDFWGQGTQVTVSS”, the “polyreactivity (PSR sort gate)” value is reported as “high polyreactivity”. For “QVQLVESGGGLVQAGGSLRLSCAASGRTFRAYAMGWYRQAPGKERELVASISRGGSTKYADSVKGRFTISRDNAKNTVYLQMNSVKPEDTAVYYCAADRLRDGVDYWGQGTQVTVSS”, the “polyreactivity (PSR sort gate)” value was “low polyreactivity”. With “QVQLVESGGGLVQAGGSLRLSCAASGSTFEDYPLGWYRQAPGKERELVAAISHIGGSTYYADSVKGRFTISRDNAKNTVYLQMNSLKPEDTAVYYCAKGGFSSKFDYWGQGTQVTVSS” the “polyreactivity (PSR sort gate)” value was “low polyreactivity”. For “QVQLVESGGGLVQAGGSHRLSCAASGFTFDFYAMGWYRQAPGKERELVAAISKNDGTTYYADSVKGRFTISRDNAKNTVYLLLNRLKPEDSAVYYCAAESGYPVYTYVSSGDYWGQGTQVTGSS”, the “polyreactivity (PSR sort gate)” value was “low polyreactivity”. In the case of “QVQLVESGGGLVQAGGSLRLSSAASGITSYGYAMGWNRQAPGKERELVASISWTGGNTYADSVKGRFTISRDNAKNTVYLQMNSLFPEDTAVYYCNAGRSWDYWYGYDYWGQGTHVTVSS”, the “polyreactivity (PSR sort gate)” value is reported as “low polyreactivity”. In the case of “QVQLVESGGGLVQAGGSLRLSCAASGSIFVGNAMGWYRQAPGKERELVAAINSGGSTNYADSVKGRFTISRDNAKNTVYLQMNSLKTEDTAVYYCAADDDYCRILQGDQSDDYWGQGTQVTVSS”, the “polyreactivity (PSR sort gate)” value is reported as “low polyreactivity”. In the case of “QVQLVESGGGLFQAGGSLRLSSAASGSIFHPYAMGWYRQAPGKERELVAAISSSTGRTYYADYVKGRFTISRDNAKNTVYLQMNSLKPEDTAVYYCAARKKYSEFDYWGQGTQVTVSS”, the “polyreactivity (PSR sort gate)” value is reported as “high polyreactivity”. In the case of “QVQLVESGGRLVQSGGSLRLSCAASGFIFSYNAMGLYRQAPGKERELVASIRTRGGSTYYADSVKGRFTISRDNAKNSVYLQMNSLKPEDTAVYYCAARPFQRRYDYWGQGTQVTVST”, the “polyreactivity (PSR sort gate)” value is reported as “low polyreactivity”. In the case of “QVQLVESGGGLVQAGGRLRLSCAASGRTFGYYTMGWYRQAPGKERELVATIRWSGGSTYADSVKGRFTISRDNANNTVYLQMNSLKPEDTAVYYCARRLFSWGAPFGYWGQGTQVTVSS”, the “polyreactivity (PSR sort gate)” value is reported as “high polyreactivity”. With “QVQLVESGGGLVQAGGSLRLSCAASGSTYYSNAMGWYRPAPGKERELVAGIDTSDGSTNYADSVKGRFTISRDNAKNTVYLQMNSLKPEDTAVYYCAADYTQPGFVSYDYWGQGTQVTVSS” the “polyreactivity (PSR sort gate)” value was “low polyreactivity”. In the case of “QDQLVESGGGLFQAGGSLSLSCAASGNTFYWNAMGWYRQATGKEREFVAAISTTGVSTYYADSVKGRFTISRDNSKNTVYLQMNSLKPEDTAVYYCASEIIGYHTIYDYWGQGTQVTVSS”, the “polyreactivity (PSR sort gate)” value is reported as “low polyreactivity”.
